Assay results reported in patent US20230322957A1 (ENGMAB SARL, published 2023).

Legend:
Assay in all cases: cell-based or functional assay
[1] = target: T1, human BCMA on the cell surface (human, UniProt Q02223 1-184)
T1 sequence (looked up): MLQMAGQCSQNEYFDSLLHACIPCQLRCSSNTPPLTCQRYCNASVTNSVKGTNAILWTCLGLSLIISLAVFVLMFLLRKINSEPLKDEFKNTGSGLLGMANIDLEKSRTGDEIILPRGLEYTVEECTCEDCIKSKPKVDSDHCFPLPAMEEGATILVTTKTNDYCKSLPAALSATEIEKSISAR

[2] = target: T1, human BCMA on the cell surface; remark: listed apart in the source
[3] = target: T1, human BCMA on the cell surface; remark: listed apart in the source
[4] = target: T1, human BCMA on the cell surface; remark: listed apart in the source
[5] = target: T1, human BCMA on the cell surface; remark: listed apart in the source
[6] = target: T1, human BCMA on the cell surface; remark: listed apart in the source
[7] = target: T1, human BCMA on the cell surface; remark: listed apart in the source

B1: 83A10-TCBcv (bispecific antibody, human IgG1, kappa, L234A L235A)
heavy 1: not shown
heavy 2: not shown
light 1: not shown
light 2: EVQLLESGGGLVQPGGSLRLSCAASGFTFSTYAMNWVRQAPGKGLEWVSRIRSKYNNYATYYADSVKGRFTISRDDSKNTLYLQMNSLRAEDTAVYYCVRHGNFGNSYVSWFAYWGQGTLVTVSSASVAAPSVFIFPPSDEQLKSGTASVVCLLNNFYPREAKVQWKVDNALQSGNSQESVTEQDSKDSTYSLSSTLTLSKADYEKHKVYACEVTHQGLSSPVTKSFNRGEC
B1 was tested. Which “EC50 redirected T-cell killing of L363 cells (LDH release), Donor 1” value [1] did it give?
Its value is 16.8 pM.

And the “EC50 redirected T-cell killing of L363 cells (LDH release), Donor 2” value [1]?
Its value is 47.8 pM.

What about the “EC50 redirected T-cell killing of L363 cells (LDH release), Donor 3” value [1] of the same binder?
The value was 28.4 pM.

What about the “EC50 redirected T-cell killing of L363 cells (LDH release), Donor 4” value [1] of the same binder?
The value was 12.6 pM.

What about the “EC50 redirected T-cell killing of L363 cells (LDH release), Donor 5” value [1] of the same binder?
The value was 39 pM.

What about the “Annexin-V positive JJN-3 cells (%) at 0.1 pM, Experiment 2” value [2] of the same binder?
The value was 13.1%.

And the “Annexin-V positive JJN-3 cells (%) at 1 pM, Experiment 1” value [2]?
Its value is 11.4%.

And the “Annexin-V positive JJN-3 cells (%) at 1 pM, Experiment 2” value [2]?
The value was 14.3%.

And the “Annexin-V positive JJN-3 cells (%) at 10 pM, Experiment 1” value [2]?
The value was 11.1%.

And the “Annexin-V positive JJN-3 cells (%) at 10 pM, Experiment 2” value [2]?
Its value is 15.9%.

And the “Annexin-V positive JJN-3 cells (%) at 100 pM, Experiment 1” value [2]?
The value was 9.12%.

What about the “Annexin-V positive JJN-3 cells (%) at 100 pM, Experiment 2” value [2] of the same binder?
The value was 16.5%.

What about the “Annexin-V positive JJN-3 cells (%) at 1000 pM, Experiment 1” value [2] of the same binder?
Its value is 10.2%.

And the “Annexin-V positive JJN-3 cells (%) at 1000 pM, Experiment 2” value [2]?
The value was 17.5%.

And the “Annexin-V positive JJN-3 cells (%) at 10000 pM, Experiment 1” value [2]?
The value was 16.8%.

What about the “Annexin-V positive JJN-3 cells (%) at 10000 pM, Experiment 2” value [2] of the same binder?
The value was 22.9%.

What about the “EC50 redirected T-cell killing of H929 cells (LDH release), Donor 1” value [3] of the same binder?
Its value is 3.9 pM.

What about the “EC50 redirected T-cell killing of H929 cells (LDH release), Donor 3” value [3] of the same binder?
Its value is 8.5 pM.

And the “EC50 redirected T-cell killing of H929 cells (LDH release), Donor 4” value [3]?
The value was 5 pM.

What about the “EC50 redirected T-cell killing of H929 cells (LDH release), Donor 5” value [3] of the same binder?
The value was 4.3 pM.

And the “EC50 redirected T-cell killing of H929 cells (LDH release), Donor 6” value [3]?
Its value is 1.5 pM.

And the “EC50 redirected T-cell killing of RPMI-8226 cells (LDH release), Donor 2” value [4]?
The value was 620 pM.

What about the “EC50 redirected T-cell killing of RPMI-8226 cells (LDH release), Donor 3” value [4] of the same binder?
The value was 229 pM.

And the “EC50 redirected T-cell killing of RPMI-8226 cells (LDH release), Donor 4” value [4]?
The value was 35 pM.

And the “EC50 redirected T-cell killing of RPMI-8226 cells (LDH release), Donor 5” value [4]?
The value was 64.9 pM.

And the “Lysis of JJN-3 cells (%) at 0.1 pM, Experiment 2” value [5]?
The value was 22.3%.

And the “Lysis of JJN-3 cells (%) at 1 pM, Experiment 1” value [5]?
Its value is 24.4%.

And the “Lysis of JJN-3 cells (%) at 1 pM, Experiment 2” value [5]?
Its value is -1.88%.

What about the “Lysis of JJN-3 cells (%) at 10 pM, Experiment 1” value [5] of the same binder?
The value was 41.9%.

And the “Lysis of JJN-3 cells (%) at 10 pM, Experiment 2” value [5]?
Its value is 39.6%.

What about the “Lysis of JJN-3 cells (%) at 100 pM, Experiment 1” value [5] of the same binder?
The value was 18.4%.

And the “Lysis of JJN-3 cells (%) at 100 pM, Experiment 2” value [5]?
The value was 20.1%.

What about the “Lysis of JJN-3 cells (%) at 1000 pM, Experiment 1” value [5] of the same binder?
The value was 26.7%.

And the “Lysis of JJN-3 cells (%) at 1000 pM, Experiment 2” value [5]?
Its value is 25.3%.

What about the “Lysis of JJN-3 cells (%) at 10000 pM, Experiment 1” value [5] of the same binder?
The value was 70.3%.

And the “Lysis of JJN-3 cells (%) at 10000 pM, Experiment 2” value [5]?
Its value is 51.2%.

And the “Annexin-V positive patient bone marrow myeloma plasma cells (%) at 10 pM” value [6]?
Its value is 16.8%.

And the “Annexin-V positive patient bone marrow myeloma plasma cells (%) at 100 pM” value [6]?
The value was 15.7%.

What about the “Annexin-V positive patient bone marrow myeloma plasma cells (%) at 1000 pM” value [6] of the same binder?
The value was 23.1%.

What about the “Annexin-V positive patient bone marrow myeloma plasma cells (%) at 10000 pM” value [6] of the same binder?
Its value is 30.9%.

And the “Annexin-V positive patient bone marrow myeloma plasma cells (%) at 30000 pM” value [6]?
The value was 29.3%.

What about the “Granzyme B secretion EC50, PBMC + RPMI-8226 cells (CBA)” value [7] of the same binder?
Its value is 0.34 nM.

And the “IL-10 secretion EC50, PBMC + RPMI-8226 cells (CBA)” value [7]?
The value was 0.3 nM.

And the “TNF-α secretion EC50, PBMC + RPMI-8226 cells (CBA)” value [7]?
Its value is 0.52 nM.
